From patent publication US20250197482A1

Legend:
[1] = target: 426C-WITO soluble Env trimer (clade B), stabilized in the prefusion-closed conformation (HIV-1); experiment: ELISA, lectin-captured trimer, expression supernatant, single point, OD 450 nm, column 426c-WITO-degly3
[2] = target: BG505 DS-SOSIP.664 Env trimer (HIV-1); experiment: ITC, 37 C, PBS pH 7.4, antibody titrated into trimer
[3] = target: CAP256 soluble Env trimer (clade C), stabilized in the prefusion-closed conformation (HIV-1); experiment: ELISA, lectin-captured trimer, expression supernatant, single point, OD 450 nm
[4] = target: JRFL soluble Env trimer (clade B), stabilized in the prefusion-closed conformation (HIV-1); experiment: as above
[5] = target: K169V variant of CAP256 soluble Env trimer (HIV-1); experiment: as above
[6] = target: BG505 DS-SOSIP.664 Env trimer (HIV-1); experiment: ITC, 37 C, PBS pH 7.4, nanobody titrated into trimer

Row | Binder | ELISA binding [1] | -TΔS [2] | Kd [2] | N (stoichiometry) (Antigen Binding Sites per Trimer) [2] | ΔG [2] | ΔH [2] | ELISA binding [3] | ELISA binding [4] | ELISA binding [5] | -TΔS [6] | Kd [6] | N (stoichiometry) (Antigen Binding Sites per Trimer) [6] | ΔG [6] | ΔH [6]
1 | CAP256V2LS (antibody, V domains shown) VH: QVQLVESGGGVVQPGTSLRLSCAASQFRFDGYGMHWVRQAPGKGLEWVASISHDGIKKYHAEKVWGRFTISRDNSKNTLYLQMNSLRPEDTALYYCAKDLREDECEEWWSDYYDFGAQLPCAKSRGGLVGIADNWGQGTMVTVSS VL: QSVLTQPPSVSAAPGQKVTISCSGNTSNIGNNFVSWYQQRPGRAPQLLIYETDKRPSGIPDRFSASKSGTSGTLAITGLQTGDEADYYCATWAASLSSARVFGTGTQVIVLG | 0.382 | 15 kcal/mol | 34 nM | 1 | -10.6 kcal/mol | -25.6 kcal/mol | 2.16 | 0.361 | 2.42 |  |  |  |  | 
2 | J3 nanobody (VHH) VHH: EVQLVESGGGLVQAGGFLRLSCELRGSIFNQYAMAWFRQAPGKEREFVAGMGAVPHYGEFVKGRFTISRDNAKSTVYLQMSSLKPEDTAIYFCARSKSTYISYNSNGYDYWGRGTQVTVSS |  |  |  |  |  |  |  |  |  | 1.4 kcal/mol | 92 nM | 3.1 | -10 kcal/mol | -11.4 kcal/mol
